The target of assay [1] is NGF. Nature of the assay: cell-based or functional assay.
The target in assay [2] is TNF-alpha. Nature of the assay: cell-based or functional assay.
Assay [3] addresses T1, Recombinant human B7-1/CD80 Fc chimera (Cat. 140-B1-100, R&D Systems) (human, UniProt P33681 35-242).
T1 construct: extracellular domain; also called B7-1 antigen; Fc part of the bought chimera not given; not described
T1 sequence (looked up): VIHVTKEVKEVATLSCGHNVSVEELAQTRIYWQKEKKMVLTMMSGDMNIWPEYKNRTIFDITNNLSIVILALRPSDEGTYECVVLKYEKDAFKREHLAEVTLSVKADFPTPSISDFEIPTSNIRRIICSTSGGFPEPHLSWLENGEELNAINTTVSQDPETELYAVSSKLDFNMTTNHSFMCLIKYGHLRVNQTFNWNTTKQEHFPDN
Description: direct bind ELISA, coated recombinant human B7-1/CD80 Fc chimera. As to the method: Enzyme Linked Immunosorbent Assays (ELISA) to screen for antibodies that bind a desired target antigen were performed as follows. High bind ELISA plates (Corning Costar #3369, Acton, Mass.) were coated with 100 μL/well of 10 μg/ml of desired target antigen (R&D Systems, Minneapolis, Minn.) or desired target antigen extra-cellular domain/FC fusion protein (R&D Systems, Minneapolis, Minn.) or monoclonal mouse anti-polyHistidine antibody (R&D Systems #MAB050, Minneapolis, Minn.) in phosphate buffered saline (10×PBS, Abbott Bioresearch Center, Media Prep#MPS-073, Worcester, Mass.) overnight at 4° C. Plates were washed four times with PBS containing 0.02% Tween 20. Plates were blocked by the addition of 300 μL/well blocking solution (non-fat dry milk powder, various retail suppliers, diluted to 2% in PBS) for ½ hour at room temperature. Plates were washed four times after blocking with PBS containing 0.02% Tween 20.
One hundred microliters of 10 ng/mL goat anti-human IgG-FC specific HRP conjugated antibody (Southern Biotech #2040-05, Birmingham, Ala.) was added to each well of the desired target antigen plate or anti-polyHistidine antibody/Histidine tagged desired target antigen plate. Alternatively, one hundred microliters of 10 ng/mL goat anti-human IgG-kappa light chain specific HRP conjugated antibody (Southern Biotech #2060-05 Birmingham, Ala.) was added to each well of the desired target antigen/FC fusion plate and incubated for 1 hour at room temperature. Plates were washed 4 times with PBS containing 0.02% Tween 20.
One hundred microliters of enhanced TMB solution (Neogen Corp. #308177, K Blue, Lexington, Ky.) was added to each well and incubated for 10 minutes at room temperature. The reaction was stopped by the addition of 50 μL 1N sulphuric acid. Plates were read spectrophotometrically at a wavelength of 450 nm

For assay [4], the target named is T2, Recombinant human B7-2/CD86 Fc chimera (Cat. 141-B2-100, R&D Systems) (human, UniProt P42081 26-245).
T2 construct: Fc part of the bought chimera not given; not described
T2 sequence (looked up): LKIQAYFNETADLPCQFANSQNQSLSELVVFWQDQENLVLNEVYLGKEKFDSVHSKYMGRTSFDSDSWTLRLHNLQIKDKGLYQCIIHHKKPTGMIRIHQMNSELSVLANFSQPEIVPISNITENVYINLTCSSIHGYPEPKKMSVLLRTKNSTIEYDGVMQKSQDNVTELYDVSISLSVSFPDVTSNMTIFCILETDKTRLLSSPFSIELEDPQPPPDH
Description: competitive ELISA; coated CD28 Fc, biotinylated B7-2/CD86 Fc, construct titrated. As to the method: (§1) ELISA plates (Nunc, MaxiSorp, Rochester, N.Y.) were incubated overnight at 4° C. with Recombinant Human CD28 Fc Chimera (Cat. #342-CD-200). Plates were washed three times in washing buffer (PBS containing 0.05% Tween 20), and blocked for 1 hour at 25° C. in blocking buffer (PBS containing 1% BSA). Wells were washed three times, and serial dilutions of each antibody or DVD-Ig in PBS containing 0.1% BSA were added to the wells and incubated at 25° C. for 1 hour. The wells were washed three times, and biotinylated antigen (2 nM) was added to the plates and incubated for 1 hour at 25° C. The wells were washed three times and incubated for 1 hour at 25° C. with streptavidin-HRP (KPL #474-3000, Gaithersburg, Md.). The wells were washed three times, and 100 μl of ULTRA-TMB ELISA (Pierce, Rockford, Ill.) was added per well. Following color development the reaction was stopped with 1N HCL and absorbance at 450 nm was measured. Recombinant human B7-1/CD80 Fc chimera (Cat. 140-B1-100, R&D Systems, Minneapolis, Minn.) was used.
Recombinant human B7-2/CD86 Fc chimera (Cat. 141-B2-100, R&D Systems, Minneapolis, Minn.) was used.

Assay [5] deals with T1, Recombinant human B7-1/CD80 Fc chimera …. Description: competitive ELISA; coated CD28 Fc, biotinylated B7-1/CD80 Fc (2 nM), construct titrated. As to the method:
as §1

B1: RAB031 (other)
VH: QVQLQESGPGLVKPSETLSLTCTVSGFSLIGYDLNWIRQPPGKGLEWIGIIWGDGTTDYNSAVKSRVTISKDTSKNQFSLKLSSVTAADTAVYYCARGGYWYATSYYFDYWGQGTLVTVSS
VL: LPAQVAFTPYAPEPGSTCRLREYYDQTAQMCCSKCSPGQHAKVFCTKTSDTVCDSCEDSTYTQLWNWVPECLSCGSRCSSDQVETQACTREQNRICTCRPGWYCALSKQEGCRLCAPLRKCRPGFGVARPGTETSDVVCKPCAPGTFSNTTSSTDICRPHQICNVVAIPGNASMDAVCTSTSPTRSMAPGAVHLPQPVSTRSQHTQPTPEPSTAPSTSFLLPMGPSPPAEGSTGDTVAAPDIQMTQSPSSLSASVGDRVTITCRASQSISNNLNWYQQKPGKAPKLLIYYTSRFHSGVPSRFSGSGSGTDFTFTISSLQPEDIATYYCQQEHTLPYTFGQGTKLEIKR
Consider B1, for which, in assay [1], the “C-terminal Bioassay Mean (IC50, nM): Cell Impedance assay” value worked out at 1.1 nM and the “C-terminal Bioassay Mean (IC50, nM): pERK assay” value worked out at 0.5 nM. Besides, the “N-terminal L929 Assay (EC50, pM)” value in assay [2] stood at 120 pM.

B2: RAB028 (other)
VH: EVQLVQSGAEVKKPGASVKVSCKASGYTFTKYWLGWVRQAPGQGLEWMGDIYPGYDYTHYNEKFKDRVTLTTDTSTSTAYMELRSLRSDDTAVYYCARSDGSSTYWGQGTLVTVSS
VL: LPAQVAFTPYAPEPGSTCRLREYYDQTAQMCCSKCSPGQHAKVFCTKTSDTVCDSCEDSTYTQLWNWVPECLSCGSRCSSDQVETQACTREQNRICTCRPGWYCALSKQEGCRLCAPLRKCRPGFGVARPGTETSDVVCKPCAPGTFSNTTSSTDICRPHQICNVVAIPGNASMDAVCTSTSPTRSMAPGAVHLPQPVSTRSQHTQPTPEPSTAPSTSFLLPMGPSPPAEGSTGDTVAAPDVLMTQTPLSLPVTPGEPASISCTSSQNIVHSNGNTYLEWYLQKPGQSPQLLIYKVSNRFSGVPDRFSGSGSGTDFTLKISRVEAEDVGVYYCFQVSHVPYTFGGGTKVEIKR
As to B2, the “N-terminal L929 Assay (EC50, pM)” value in assay [2] was 90 pM.

B3: RAB013 (other)
VH: AMHVAQPAVVLASSRGIASFVCEYASPGKYTEVRVTVLRQADSQVTEVCAATYMMGNELTFLDDSICTGTSSGNQVNLTIQGLRAMDTGLYICKVELMYPPPYYEGIGNGTQIYVIDPEPCPDSDASTKGPSVFPLAPEVQLVQSGAEVKKPGASVKVSCKASGYTFTKYWLGWVRQAPGQGLEWMGDIYPGYDYTHYNEKFKDRVTLTTDTSTSTAYMELRSLRSDDTAVYYCARSDGSSTYWGQGTLVTVSS
VL: AMHVAQPAVVLASSRGIASFVCEYASPGKYTEVRVTVLRQADSQVTEVCAATYMMGNELTFLDDSICTGTSSGNQVNLTIQGLRAMDTGLYICKVELMYPPPYYEGIGNGTQIYVIDPEPCPDSDTVAAPSVFIFPPDVLMTQTPLSLPVTPGEPASISCTSSQNIVHSNGNTYLEWYLQKPGQSPQLLIYKVSNRFSGVPDRFSGSGSGTDFTLKISRVEAEDVGVYYCFQVSHVPYTFGGGTKVEIKR
notes: rDVD-Ig with LEA29Y on both chains and long linkers; also called RAB013H; RAB013L
As for B3, the results for the concentration giving a half-maximal response (EC50) in assay [3], in assay [4] and in assay [5] were 21.2 nM, 0.5 nM and 2 nM, respectively.

B4: RAB027 (other)
VH: LPAQVAFTPYAPEPGSTCRLREYYDQTAQMCCSKCSPGQHAKVFCTKTSDTVCDSCEDSTYTQLWNWVPECLSCGSRCSSDQVETQACTREQNRICTCRPGWYCALSKQEGCRLCAPLRKCRPGFGVARPGTETSDVVCKPCAPGTFSNTTSSTDICRPHQICNVVAIPGNASMDAVCTSTSPTRSMAPGAVHLPQPVSTRSQHTQPTPEPSTAPSTSFLLPMGPSPPAEGSTGDASTKGPEVQLVQSGAEVKKPGASVKVSCKASGYTFTKYWLGWVRQAPGQGLEWMGDIYPGYDYTHYNEKFKDRVTLTTDTSTSTAYMELRSLRSDDTAVYYCARSDGSSTYWGQGTLVTVSS
VL: DVLMTQTPLSLPVTPGEPASISCTSSQNIVHSNGNTYLEWYLQKPGQSPQLLIYKVSNRFSGVPDRFSGSGSGTDFTLKISRVEAEDVGVYYCFQVSHVPYTFGGGTKVEIKR
Consider B4, for which the “N-terminal L929 Assay (EC50, pM)” value in assay [2] is 30 pM.

B5: RAB014 (other)
VH: B3 VH
VL: B4 VL
notes: rDVD-Ig with LEA29Y on the heavy chain only and a long linker; also called RAB014H; RAB014L
Take B5: the concentration for a half-maximal effect (EC50) in assay [3] turned out to be 1.5 nM; in assay [4], 1.1 nM; in assay [5], 1.7 nM.

B6: RAB020 (other)
VH: AMHVAQPAVVLASSRGIASFVCEYASPGKYTEVRVTVLRQADSQVTEVCAATYMMGNELTFLDDSICTGTSSGNQVNLTIQGLRAMDTGLYICKVELMYPPPYYEGIGNGTQIYVIDPEPCPDSDQEPKSSDKTHTSPEVQLVQSGAEVKKPGASVKVSCKASGYTFTKYWLGWVRQAPGQGLEWMGDIYPGYDYTHYNEKFKDRVTLTTDTSTSTAYMELRSLRSDDTAVYYCARSDGSSTYWGQGTLVTVSS
VL: B4 VL
notes: rDVD-Ig with LEA29Y on the heavy chain only and a QH linker; also called RAB020H; RAB020L
Take B6: the half-maximal effective concentration (EC50) in assay [3] was determined as 1.2 nM; in assay [4], 1 nM; in assay [5], 1.7 nM.

B7: RAB030 (other)
VH: LPAQVAFTPYAPEPGSTCRLREYYDQTAQMCCSKCSPGQHAKVFCTKTSDTVCDSCEDSTYTQLWNWVPECLSCGSRCSSDQVETQACTREQNRICTCRPGWYCALSKQEGCRLCAPLRKCRPGFGVARPGTETSDVVCKPCAPGTFSNTTSSTDICRPHQICNVVAIPGNASMDAVCTSTSPTRSMAPGAVHLPQPVSTRSQHTQPTPEPSTAPSTSFLLPMGPSPPAEGSTGDASTKGPQVQLQESGPGLVKPSETLSLTCTVSGFSLIGYDLNWIRQPPGKGLEWIGIIWGDGTTDYNSAVKSRVTISKDTSKNQFSLKLSSVTAADTAVYYCARGGYWYATSYYFDYWGQGTLVTVSS
VL: DIQMTQSPSSLSASVGDRVTITCRASQSISNNLNWYQQKPGKAPKLLIYYTSRFHSGVPSRFSGSGSGTDFTFTISSLQPEDIATYYCQQEHTLPYTFGQGTKLEIKR
B7: in assay [1], the “C-terminal Bioassay Mean (IC50, nM): Cell Impedance assay” value is 1.6 nM and the “C-terminal Bioassay Mean (IC50, nM): pERK assay” value amounted to 0.6 nM. The “N-terminal L929 Assay (EC50, pM)” value in assay [2] came out at 50 pM.

(Values after patent publication US20140219913A1 (AbbVie / Abbott, published 2014).)
